The values that follow come from patent publication US20260152553A1.

In this experiment the target is CD19/CD20 bispecific CAR (Leu16 scFv-(G4S)4-FMC63 scFv-IgG4 hinge-CD28 TM-4-1BB-CD3 zeta). The experiment is described as follows: flow cytometry, staining of T cells (donor 1917) transduced with CD19/20 CAR lentiviral vector. On the technique in general: A flow cytometer gives signals particle by particle.
CD19/CD20 bispecific CAR (Leu16 scFv-(G4S)4-FMC63 scFv-IgG4 hinge-CD28 TM-4-1BB-CD3 zeta), sequence (chain, as listed by the source): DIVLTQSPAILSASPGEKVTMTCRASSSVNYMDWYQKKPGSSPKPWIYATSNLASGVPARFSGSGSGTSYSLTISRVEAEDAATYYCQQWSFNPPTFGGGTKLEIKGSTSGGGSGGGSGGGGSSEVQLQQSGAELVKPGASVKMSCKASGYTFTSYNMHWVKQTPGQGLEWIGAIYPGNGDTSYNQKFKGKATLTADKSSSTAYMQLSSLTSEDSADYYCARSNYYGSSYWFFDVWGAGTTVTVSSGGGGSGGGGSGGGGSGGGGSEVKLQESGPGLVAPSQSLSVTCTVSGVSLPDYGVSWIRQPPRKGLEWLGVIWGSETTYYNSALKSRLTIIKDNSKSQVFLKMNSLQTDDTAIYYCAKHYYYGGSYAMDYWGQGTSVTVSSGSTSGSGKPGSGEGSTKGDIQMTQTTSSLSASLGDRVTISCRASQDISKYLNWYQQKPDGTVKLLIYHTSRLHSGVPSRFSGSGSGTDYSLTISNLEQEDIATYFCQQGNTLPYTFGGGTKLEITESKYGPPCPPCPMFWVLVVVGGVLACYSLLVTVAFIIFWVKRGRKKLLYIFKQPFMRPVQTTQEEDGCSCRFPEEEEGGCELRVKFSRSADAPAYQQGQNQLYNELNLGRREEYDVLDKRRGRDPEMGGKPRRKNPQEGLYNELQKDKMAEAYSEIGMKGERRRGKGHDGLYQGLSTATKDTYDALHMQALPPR

As to “Byotinilated anti-FMC63 (Acros) (antibody)”, the % Positive Cells is 59.6%.
